Experimental data reported in patent publication US20080139472A1, “UPREGULATING BDNF LEVELS TO MITIGATE MENTAL RETARDATION” (THE REGENTS OF THE UNIVERSITY OF CALIFORNIA, priority 2006, published 2008).
“Also recorded” adds a separate entry of the source.

B1: BDNF: purified recombinant (mature) BDNF, catalog #GF029; Millipore; single 14 kDa band under denaturing conditions (protein, UniProt P23560 19-247, looked up)
Neurotrophic factor BDNF …: APMKEANIRGQGGLAYPGVRTHGTLESVNGPKAGSRGLTSLADTFEHVIEELLDEDQKVRPNEENNKDADLYTSRVMLSSQVPLEPPLLFLLEEYKNYLDAANMSMRVRRHSDPARRGELSVCDSISEWVTAADKKTAVDMSGGTVTVLEKVPVSKGQLKQYFYETKCNPMGYTKEGCRGIDKRHWNSQCRTTQSYVRALTMDSKKRIGWRFIRIDTSCVCTLTIKRGR
B2: heat-inactivated BDNF: BDNF heat-inactivated by boiling for 5 min immediately before use; specificity control (protein, UniProt P23560 19-247, looked up)
Neurotrophic factor BDNF …: B1 Neurotrophic factor BDNF …
modifications: heat-inactivated
notes: specificity control

Tests used:
Type in all cases: cell-based, mouse
[1] = system: NMDA receptor; experiment: NMDA receptor contribution to theta burst responses in hippocampal slices, estimated with APV
Description: (§1) Transverse hippocampal slices (350 m) through the mid-septotemporal hippocampus were prepared with a vibratome (VT 1000 S; Leica, Bannockbum, Ill.) in ice-cold artificial CSF [ACSF; containing (in mM) 124 NaCl, 3 KCl, 1.25 KH2PO4, 3.4 CaCl2, 2.5 MgSO4, 26 NaHCO3, and 10 dextrose, pH 7.35) from young (2-3 months old) adult Fmr1-KO and wild-type (WT) mice (unless otherwise specified, chemicals were from Sigma, St. Louis, Mo.). […] Related to this, pharmacological results obtained with such slices accurately predict effects obtained with chronic recordings or biochemical assays from behaving animals (Staubli et al., 1994; Lauterbom et al., 2003), a point that is of importance to those aspects of the present work concerned with therapeutic strategies. All experiments were initiated between 9:00 and 11:00 A.M., and slices from Fmr1-KO and WT animals were randomized across two chambers and run simultaneously. Slices were maintained at 31±1° C. in an interface recording chamber with the slice surface exposed to warm, humidified 95% O2/5% CO2 and continuous ACSF perfused at a rate of 60-70 ml/hr. Slices equilibrated to the chamber for at least 1 h before recordings were initiated. […] Evoked responses were digitized (NacGather 2.0; Theta Burst, Irvine, Calif.) and analyzed for amplitude and fall slope; data are presented as a percentage of baseline. Responses to individual theta bursts were analyzed to determine the burst area; to evaluate treatment effects on theta train facilitation, responses to each burst in the theta train are presented as a percentage change from the area of the initial burst response. […] Statistical significance was assessed using either two-way repeated-measures ANOVA to compare values that were stable over time or Mann-Whitney Utest to compare groups expressing different decay rates (i.e., values not stable over time); statistical analyses were performed using SPSS version 15.0 (SPSS, Chicago, Ill.) Variance for physiology experiments is expressed as SEM.

[2] = system: hippocampal slices from Fmr1-KO mice; experiment: LTP (fEPSP slope) after theta burst stimulation in field CA1 of hippocampal slices from Fmr1-KO mice; conditions: for effect on TBS-induced increase in fEPSP slope (30-40 min post-TBS): compared with ACSF alone
Description: Transverse hippocampal slices (350 m) through the mid-septotemporal hippocampus were prepared with a vibratome (VT 1000 S; Leica, Bannockbum, Ill.) in ice-cold artificial CSF [ACSF; containing (in mM) 124 NaCl, 3 KCl, 1.25 KH2PO4, 3.4 CaCl2, 2.5 MgSO4, 26 NaHCO3, and 10 dextrose, pH 7.35) from young (2-3 months old) adult Fmr1-KO and wild-type (WT) mice (unless otherwise specified, chemicals were from Sigma, St. Louis, Mo.). […] Related to this, pharmacological results obtained with such slices accurately predict effects obtained with chronic recordings or biochemical assays from behaving animals (Staubli et al., 1994; Lauterbom et al., 2003), a point that is of importance to those aspects of the present work concerned with therapeutic strategies. All experiments were initiated between 9:00 and 11:00 A.M., and slices from Fmr1-KO and WT animals were randomized across two chambers and run simultaneously. Slices were maintained at 31±1° C. in an interface recording chamber with the slice surface exposed to warm, humidified 95% O2/5% CO2 and continuous ACSF perfused at a rate of 60-70 ml/hr. Slices equilibrated to the chamber for at least 1 h before recordings were initiated. A single glass electrode (2 M NaCl) was placed within the mid proximodistal CA1b stratum radiatum and was used to record field EPSPs (fEPSPs) from the apical dendrites of CA1 pyramidal cells. Orthodromic stimulation was delivered at two sites (CA1a and CA1c) in the apical Schaffer collateral-commissural projections to provide convergent activation of CA1b pyramidal cells. Pulses were administered in an alternating manner to the two electrodes at 0.05 Hz by using a current that elicited a 50% maximal response. […] Input-output and paired-pulse facilitation assays were performed as described previously (Rex et al., 2005). Synaptic potentiation was induced with a train of 5 or 10 theta bursts (each containing four pulses at 100 Hz, with an interburst interval of 200 ms) Carson et al., 1986; Kramar and Lynch, 2003; Rex et al., 2005). Evoked responses were digitized (NacGather 2.0; Theta Burst, Irvine, Calif.) and analyzed for amplitude and fall slope; data are presented as a percentage of baseline. Responses to individual theta bursts were analyzed to determine the burst area; to evaluate treatment effects on theta train facilitation, responses to each burst in the theta train are presented as a percentage change from the area of the initial burst response. Unless otherwise stated, group size values presented in the figures represent number of slices tested. Generally two to three slices were tested from a given mouse, and no fewer than three mice were used in any group; for statistical analyses, each slice was considered an individual n. Statistical significance was assessed using either two-way repeated-measures ANOVA to compare values that were stable over time or Mann-Whitney Utest to compare groups expressing different decay rates (i.e., values not stable over time); statistical analyses were performed using SPSS version 15.0 (SPSS, Chicago, Ill.) Variance for physiology experiments is expressed as SEM.
A recirculating perfusion system (oxygenated and heated as above) with a peristaltic pump (60 ml/hr; MasterFlex C/L; Cole-Parmer, Vernon Hills, Ill.) was used for experiments in which purified BDNF (catalog #GF029; Millipore, Temecula, Calif.) was administered to slices. The purity of the recombinant (mature) BDNF was confirmed using Western blot analyses: a single 14 kDa band was observed under denaturing conditions. Slices received BDNF for 30 min to 1 h before physiological recording. BDNF stock was prepared in ddH2O at a concentration of 50 ng/ml (this is equivalent to 1.85 nM based on the 27 kDa size of the dimer) and stored at −20° C. Control slices from the same animals received ACSF alone in parallel on a second recirculating interface chamber. […]

[3] = system: hippocampal slices from WT mice; experiment: LTP (fEPSP slope) after theta burst stimulation in field CA1 of hippocampal slices from wild-type mice
Description: as §1, with “SEM. […]” for “SEM.”

[4] = WT slices, pair of theta bursts, mean of 6 slices
[5] = Fmr1-KO slices, five theta bursts

Row | effect of APV on theta burst responses ([1]; Fmr1-KO slices, pair of theta bursts with and without APV) | effect of APV on the second burst response [1, 4] | Molecule | effect of APV on the first burst response [1, 4] | LTP above baseline ([2]; Fmr1-KO slices treated with BDNF 15 ng/ml) [%] | slope of the fEPSP enhanced above baseline ([2]; Fmr1-KO slices, BDNF 2 nM from 30 min before theta burst stimulation, five theta bursts, 40-50 min post-TBS) [%] | degree of LTP (fEPSP slope, percent above baseline) ([2]; Fmr1-KO slices, BDNF 50 ng/ml bath-applied, five theta bursts, minutes 30-40 post-TBS, mean ±SEM) [%] | effect on input-output curves / baseline transmission (fEPSP amplitude) ([2]; Fmr1-KO slices, BDNF 50 ng/ml vs ACSF alone or heat-inactivated BDNF) | effect on facilitation of burst responses during theta trains ([2]; Fmr1-KO slices, BDNF 50 ng/ml vs ACSF and heat-inactivated BDNF) | restoration of LTP ([2]; Fmr1-KO slices, brief infusion of 50 ng/ml BDNF, threshold theta burst stimulation) | effect on TBS-induced increase in fEPSP slope (30-40 min post-TBS) [2, 5] | potentiation (fEPSP slope, percent above baseline) ([3]; BDNF 50 ng/ml bath-applied, five theta bursts, minutes 30-40 post-TBS, mean ±SEM) [%] | effect on facilitation of burst responses during theta trains ([3]; BDNF 50 ng/ml vs ACSF) | effect on input-output curves ([3]; BDNF 50 ng/ml vs ACSF alone)
1 | marked, and reversible, depression | reduced the size of fEPSPs 2 through 4 | N[C@@H](CCCP(=O)(O)O)C(=O)O [APV] | slight reduction in the half-width of the fourth fEPSP |  |  |  |  |  |  |  |  |  | 
2 |  |  | B1 |  | > 40 | 44 | 42.1±8.6 | no effect; also recorded: did not alter | did not measurably affect | fully restored LTP | enhanced | 51.3±8.6 | did not measurably affect | did not alter
3 |  |  | B2 |  |  |  |  |  |  |  | no effect |  |  | 
